In PMC2443190, “Novel Intermolecular Iterative Mechanism for Biosynthesis of Mycoketide Catalyzed by a Bimodular Polyketide Synthase” (PLoS Biology, 2008):

Biological target: PKS12Δ1 E20S mutant protein (M. tuberculosis H37Rv) (UniProt I6XD69)

Which results are given for “PKS12Δ1 E20S mutant protein (from UniProt I6XD69 1-4151) (enzyme)”?
catalytic turnover (fold decrease): 5; product formation by quantitative radio-HPLC (fold decrease): > 5
